Changes are numbered by the printed parent chain.
B1: H1H20636D (bispecific antibody, V domains shown)
VH 1: QLQLQESGPGLVKPSETLSLTCTVSGGSISSSSYYWVWIRQPPGKGLEWIGNIYFSGSTYYNPSLKSRVTITVDTSKNQFSLKMTSVTAADTAVYYCARPFYGSRGDYYYGMDVWGQGTTVTVSS
VH 2: EIVLTQSPGTLSLSPGERATLSCRASQNVRSGYLAWYQQKPGQAPRLLIYGTSTRVTGIPDRFSGFGSGTDFTLTISRLEPEDFAVYYCQQYGNSPLFTFGGGTKVEIK
VL: not shown
notes: also called anti-IsdB x anti-C1q bispecific antibody
B2: H1H20639D (bispecific antibody, V domains shown)
VH 1: B1 VH 1
VH 2: QVQLVESGGGVVQPGRSLRLSCAASGFTFSSYGMHWVRQAPGKGLEWVTNIWYDGNNKYYTDSVKGRFTISRDNSKNTLYLQMNSLTAEDTAVYYCARDGDYYVMDVWGQGTTVTVSS
VL: not shown
notes: as for B1
B3: H1H20647D (bispecific antibody, V domains shown)
VH 1: B1 VH 1
VH 2: B2 VH 2 with T49A, N50L, N56S, Y60F, T61A, N74I, T87R, V104G
VL: not shown
notes: as for B1
B4: H1H20644D (bispecific antibody, V domains shown)
VH 1: B1 VH 1
VH 2: QVQLVESGGGVVQPGRSLRLSCATSGFTFSSYGMHWVRQAPGKGLEWVALIWYDRNNEYYADSVKGRFTISRDNSKNTLYLQMNSLRAEDTAVYYCARGEWEMDYWGQGTLVTVSS
VL: not shown
notes: as for B1
B5: H1H20645D (bispecific antibody, V domains shown)
VH 1: B1 VH 1
VH 2: EVQLVQSGPEVKKPGESLKIACKASGYSFTSYWIGWVRQMPGKGLEWMGIIFPADSDTRYSPSFQGQVTISADKSITTAYLQWRSLQASDTAKYYCVRHVRWSGENWGQGTLVTVSS
VL: not shown
notes: as for B1
B6: H1H20640D (bispecific antibody, V domains shown)
VH 1: B1 VH 1
VH 2: EVQLVQSGPEVKKPGESLKISCKGSGYNFLGYWIGWVRQMPEKGLEWMAFIYPGDSDFRYSPSFQGQVTISVDRSVTTAYLHWSSLKASDTGIYFCVRQTGNGMDVWGQGTTVTVSS
VL: not shown
notes: as for B1
B7: H1H20643D (bispecific antibody, V domains shown)
VH 1: B1 VH 1
VH 2: EVQLVQSGAEVKKPGDSLKISCKGSGYSFTTYWIGWVRQMPGKGLEWMGIIFPGDSDTRYSPSFQGQVTISADKSINTAYLQWSSLKASDTAIYYCARHNRWVADYWGQGTLVTVSS
VL: not shown
notes: as for B1
B8: H1H20646D (bispecific antibody, V domains shown)
VH 1: B1 VH 1
VH 2: EVQLVQSGAEVRKPGESLKISCKGSGFSFTSYWIGWVRQMPGKGLEWMGIIFPADSDTRYSPSFQGQVTISADKSINTAYLQWRSLKVSDTAMYYCTKLQYWYFDLWGRGTLVTVSS
VL: not shown
notes: as for B1
B9: H1H20634D (bispecific antibody, V domains shown)
VH 1: EVQLVESGGGLVQPGRSLRLSCTTSGFTFDDYAMHWVRQVPGQGLEWVAGLSWNSDTIGYADSVKGRFTISRDNAKNSLYLQMKSLKAEDTALYYCTKDFYHSLNNWNYYYFDYWGQGTLVTVSS
VH 2: QVQLVESGGGVVQPGRSLRLSCVASGFTFSSYGFHWVRQAPGKGLEWVAVIWYDGSNEGYVDSVRGRFTISRDFSKNTLYLQMNSLRIEDTAVYYCARRGDYYIMDVWGQGTTVTVSS
VL: not shown
notes: as for B1

What was measured:
[1] = molecular target: T1, IsdB expressed on the surface of S. aureus Wood 46 (Staphylococcus aureus); assay: ELISA on plate-coated S. aureus Wood 46
T1 construct: whole, on cells
T1 sequence (Q2FZF0 41-613): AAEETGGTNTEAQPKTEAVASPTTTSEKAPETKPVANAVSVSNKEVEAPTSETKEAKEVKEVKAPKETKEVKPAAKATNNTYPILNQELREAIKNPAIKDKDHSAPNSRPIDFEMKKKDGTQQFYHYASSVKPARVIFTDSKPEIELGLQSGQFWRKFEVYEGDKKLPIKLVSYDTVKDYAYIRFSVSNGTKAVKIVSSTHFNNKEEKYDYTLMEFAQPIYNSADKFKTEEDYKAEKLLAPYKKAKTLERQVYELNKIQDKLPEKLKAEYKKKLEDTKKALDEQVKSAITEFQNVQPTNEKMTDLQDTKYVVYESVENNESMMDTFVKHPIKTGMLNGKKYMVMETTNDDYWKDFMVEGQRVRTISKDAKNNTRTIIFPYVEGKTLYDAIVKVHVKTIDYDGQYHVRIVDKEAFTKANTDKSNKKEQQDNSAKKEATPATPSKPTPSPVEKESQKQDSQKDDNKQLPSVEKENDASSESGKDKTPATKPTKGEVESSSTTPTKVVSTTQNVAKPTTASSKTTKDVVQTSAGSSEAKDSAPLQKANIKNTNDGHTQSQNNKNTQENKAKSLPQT
Description: Briefly, S. aureus Wood 46 was grown in RPMI overnight, washed in PBS and adjusted to an OD₆₀₀ of 0.25. MaxiSorp 96 well microtiter plates were coated overnight with 100 μl of S. aureus culture per well. Plates were washed and blocked with 3% BSA. […] Anti-human HRP conjugated secondary antibody was added to washed plates. Luminescence reagents (SuperSignal Pico) were then added to the wells and signal was detected in a plate reader (Victor X3 plate reader, Perkin Elmer) immediately. Luminescence values were analyzed by a four-parameter logistic equation over a 7-point response curve (GraphPad Prism) to determine the binding EC₅₀, of the antibodies.

[2] = molecular target: T2, native human complement component C1q protein purified from human serum (Quidel) (human, UniProt P02745 23-245; P02746 28-253; P02747 29-245); assay: competition ELISA, 6 nM biot-hC1q, competitor plate-coated hIgM
T2 construct: the protein assayed was bought native serum C1q (Quidel); no signal peptide limits are stated; also called hC1q; human C1q
T2 sequence (P02745 23-245 limits assumed, chain 1 of 3): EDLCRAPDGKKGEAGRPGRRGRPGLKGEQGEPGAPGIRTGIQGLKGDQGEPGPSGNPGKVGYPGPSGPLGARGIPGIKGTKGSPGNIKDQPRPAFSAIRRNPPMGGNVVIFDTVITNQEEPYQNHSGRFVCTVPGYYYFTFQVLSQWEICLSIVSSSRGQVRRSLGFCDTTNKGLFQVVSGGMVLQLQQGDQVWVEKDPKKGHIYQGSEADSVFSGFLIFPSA
T2 sequence (P02746 28-253 limits assumed, chain 2 of 3): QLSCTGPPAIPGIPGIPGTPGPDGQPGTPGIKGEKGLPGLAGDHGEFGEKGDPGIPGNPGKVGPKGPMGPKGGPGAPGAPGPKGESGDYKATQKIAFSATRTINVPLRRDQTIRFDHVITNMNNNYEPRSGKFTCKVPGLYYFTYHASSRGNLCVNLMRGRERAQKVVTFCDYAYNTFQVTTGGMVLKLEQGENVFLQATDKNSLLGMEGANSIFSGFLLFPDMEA
T2 sequence (P02747 29-245 limits assumed, chain 3 of 3): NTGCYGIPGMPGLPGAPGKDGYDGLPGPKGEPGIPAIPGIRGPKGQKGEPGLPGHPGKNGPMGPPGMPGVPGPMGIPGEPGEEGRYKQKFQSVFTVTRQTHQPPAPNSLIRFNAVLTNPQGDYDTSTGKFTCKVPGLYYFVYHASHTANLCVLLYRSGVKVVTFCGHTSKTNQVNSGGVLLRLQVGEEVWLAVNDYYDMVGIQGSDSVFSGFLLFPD

[3] = molecular target: T2, native human complement component C1q …; assay: SPR Biacore, captured Ab, hC1q analyte, 25C
[4] = molecular target: T2, native human complement component C1q …; assay: competition ELISA, 30 pM biot-hC1q, competitor plate-coated hIgG3-k
[5] = molecular target: T3, Recombinant bacterial IsdB expressed with a hexahistidine tag (IsdB-6xHis; REGN2655) (Staphylococcus aureus, UniProt A6QG30 42-613); assay: SPR Biacore, captured Ab, IsdB-6xHis analyte, 37C
T3 sequence (A6QG30 42-613, tags left off): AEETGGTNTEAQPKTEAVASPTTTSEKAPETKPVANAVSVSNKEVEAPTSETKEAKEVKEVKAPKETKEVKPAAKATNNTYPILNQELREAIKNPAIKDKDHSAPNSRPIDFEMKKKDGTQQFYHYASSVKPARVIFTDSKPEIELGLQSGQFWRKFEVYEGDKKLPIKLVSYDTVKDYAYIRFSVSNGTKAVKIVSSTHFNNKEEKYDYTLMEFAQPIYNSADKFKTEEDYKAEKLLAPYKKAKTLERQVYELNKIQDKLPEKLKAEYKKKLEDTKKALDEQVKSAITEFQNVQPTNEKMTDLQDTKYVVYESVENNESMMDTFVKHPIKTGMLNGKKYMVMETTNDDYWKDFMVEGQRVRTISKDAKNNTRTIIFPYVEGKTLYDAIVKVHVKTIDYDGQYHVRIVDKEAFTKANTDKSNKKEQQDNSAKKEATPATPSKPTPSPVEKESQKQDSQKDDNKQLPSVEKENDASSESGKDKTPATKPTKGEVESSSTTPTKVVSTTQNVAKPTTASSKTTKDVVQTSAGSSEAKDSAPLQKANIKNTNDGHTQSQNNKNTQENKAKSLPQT

[6] = molecular target: T2, native human complement component C1q …; assay: cell-based or functional assay
[7] = molecular target: T3, Recombinant bacterial IsdB expressed …; assay: SPR Biacore, captured Ab, IsdB-6xHis analyte, 25C
[8] = molecular target: T2, native human complement component C1q …; assay: cell-based or functional assay; remark: listed apart in the source
[9] = molecular target: T2, native human complement component C1q …; assay: SPR Biacore, captured Ab, hC1q analyte, 37C
[10] = molecular target: T2, native human complement component C1q …; assay: competition ELISA, 30 pM biot-hC1q, competitor plate-coated hIgG1-k
[11] = molecular target: T2, native human complement component C1q …; assay: competition ELISA, 6 nM biot-hC1q, competitor plate-coated hIgG2-k
[12] = molecular target: T2, native human complement component C1q …; assay: cell-based or functional assay; remark: listed apart in the source

| Binder | EC50 [1] [µM] | % Blockade with 600 nM bispecific Ab [2] [%] | Kd [3] [µM] | koff [3] [s⁻¹] | kon [3] [M⁻¹ s⁻¹] | t½ [3] [min] | % Blockade with 30 nM bispecific Ab [4] [%] | Kd [5] [µM] | koff [5] [s⁻¹] | kon [5] [M⁻¹ s⁻¹] | t1/2 [5] [min] | C1q deposition on S. aureus Cowan I EC50 [6] [µM] | Kd [7] [µM] | koff [7] [s⁻¹] | kon [7] [M⁻¹ s⁻¹] | t½ [7] [min] | Kd [9] [µM] | koff [9] [s⁻¹] | kon [9] [M⁻¹ s⁻¹] | t1/2 [9] [min] | further results |
| --- | --- | --- | --- | --- | --- | --- | --- | --- | --- | --- | --- | --- | --- | --- | --- | --- | --- | --- | --- | --- | --- |
| B1 | 0.00952 | 11 | 0.00212 | 0.0102 | 4.81e+06 | 1.14 | -11 | 0.0174 | 0.00144 | 82800 | 8.04 | 0.00854 | 0.00498 | 0.000378 | 75800 | 30.6 | 0.00273 | 0.0179 | 6.57e+06 | 0.64 | Classical Pathway hemolysis assay % inhibition [8]: 0%; % Blockade with 30 nM bispecific Ab [10]: -29%; % Blockade with 600 nM bispecific Ab [11]: 20% |
| B2 | 0.0133 | 86 | 0.000655 | 0.00612 | 9.35e+06 | 1.89 | 33 | 0.0185 | 0.00148 | 80200 | 7.81 | 0.00206 | 0.0113 | 0.000562 | 49800 | 20.5 | 0.000664 | 0.00859 | 1.29e+07 | 1.34 | IC50 [2]: 0.042 µM; inhibition of CDC of Daudi cells, IC50 [M] [12]: > 1e-07 M; inhibition of CDC of Daudi cells, Max % Inhibition [12]: 70%; % Blockade with 30 nM bispecific Ab [10]: 64%; % Blockade with 600 nM bispecific Ab [11]: 82%; IC50 [11]: 0.07 µM |
| B3 | 0.0073 | 91 | 0.000368 | 0.0034 | 9.25e+06 | 3.39 | 60 | 0.0215 | 0.00154 | 71500 | 7.51 | 0.000587 | 0.0123 | 0.000565 | 46000 | 20.4 | 0.000439 | 0.00576 | 1.31e+07 | 2 | IC50 [2]: 0.025 µM; inhibition of CDC of Daudi cells, IC50 [M] [12]: > 1e-07 M; inhibition of CDC of Daudi cells, Max % Inhibition [12]: 82%; % Blockade with 30 nM bispecific Ab [10]: 85%; IC50 [10]: 0.009 µM; % Blockade with 600 nM bispecific Ab [11]: 80%; IC50 [11]: 0.032 µM |
| B4 | 0.0126 | 75 | 0.000232 | 0.00624 | 2.69e+07 | 1.85 | 36 | 0.0182 | 0.0015 | 82500 | 7.7 | 0.00112 | 0.011 | 0.000554 | 50300 | 20.8 | 0.000924 | 0.0276 | 2.98e+07 | 0.42 | IC50 [2]: 0.043 µM; inhibition of CDC of Daudi cells, IC50 [M] [12]: > 1e-07 M; inhibition of CDC of Daudi cells, Max % Inhibition [12]: 88%; % Blockade with 30 nM bispecific Ab [10]: 66%; IC50 [10]: 0.024 µM; % Blockade with 600 nM bispecific Ab [11]: 81%; IC50 [11]: 0.063 µM |
| B5 | 0.0119 | 95 | 0.000158 | 0.00452 | 2.86e+07 | 2.56 | 87 | 0.0191 | 0.00155 | 81200 | 7.43 | 0.000298 | 0.00995 | 0.000551 | 55400 | 21 | 0.00088 | 0.0317 | 3.6e+07 | 0.36 | IC50 [2]: 0.013 µM; IC50 [4]: 0.0053 µM; inhibition of CDC of Daudi cells, IC50 [M] [12]: 3.4e-08 M; inhibition of CDC of Daudi cells, Max % Inhibition [12]: ≥ 99%; % Blockade with 30 nM bispecific Ab [10]: 94%; IC50 [10]: 0.00084 µM; % Blockade with 600 nM bispecific Ab [11]: 87%; IC50 [11]: 0.018 µM |
| B6 | 0.018 | – | – | – | – | – | – | 0.0172 | 0.00142 | 82800 | 8.13 | – | 0.00936 | 0.000553 | 59100 | 20.9 | – | – | – | – | – |
| B7 | 0.0101 | – | – | – | – | – | – | 0.0185 | 0.00148 | 79900 | 7.81 | – | 0.00942 | 0.000555 | 58900 | 20.8 | – | – | – | – | – |
| B8 | 0.0129 | – | – | – | – | – | – | 0.0185 | 0.0015 | 80700 | 7.72 | – | 0.00974 | 0.000433 | 44500 | 26.7 | – | – | – | – | – |
| B9 | 0.00104 | – | – | – | – | – | – | 0.00381 | 0.000573 | 150000 | 20.2 | – | 0.00265 | 0.000296 | 112000 | 39 | – | – | – | – | – |

From patent publication US20210147519A1 (Regeneron, published 2021)
